Among the data in the Immune Epitope Database (IEDB) are Kd and IC50 values, retold here.

The target in one test is HLA-C*07:02. In words: IEDB peptide-MHC binding, purified MHC/direct/fluorescence; filed as Kd, often an IC50 or EC50 that approximates it; ≥ and ≤ were set here for values at or beyond the usual limits of such assays.
The next test has as its target HLA-B*39:01. In words: IEDB peptide-MHC binding, purified MHC/competitive/fluorescence; filed as Kd, often an IC50 or EC50 that approximates it; ≥ and ≤ were set here for values at or beyond the usual limits of such assays.
The target of a further test is HLA-A*69:01. The description is as above. The conditions noted are these: source organism: Zaire ebolavirus.
A further test has as its target HLA-B*15:17. The description is as above. The conditions noted are these: source organism: Zaire ebolavirus.
In test [1] the target is HLA-A*02:01. The description is as above.
The target in test [2] is HLA-B*51:01. The description is as above. The conditions noted are these: source organism: Zaire ebolavirus.
In the next test the target is HLA-B*57:01. The test is described as above. The note with it: source organism: Zaire ebolavirus.
The next test deals with HLA-A*26:01. The description is as above. The conditions noted are these: source organism: Zaire ebolavirus.
Another test deals with HLA-B*27:03. Described as above. The conditions noted are these: source organism: Zaire ebolavirus.
In a further test the target is HLA-B*46:01. The test is described as above. The conditions noted are these: source organism: Zaire ebolavirus.
In test [3] the target is HLA-B*15:01. The description is as above. The note with it: source organism: Zaire ebolavirus.
The target of another test is HLA-A*29:02. In words: IEDB peptide-MHC binding, purified MHC/direct/fluorescence; filed as Kd, often an IC50 or EC50 that approximates it; ≥ and ≤ were set here for values at or beyond the usual limits of such assays. The note with it: source organism: Zaire ebolavirus.
The target in a further test is HLA-A*02:16. The test is described as above. The note with it: source organism: Zaire ebolavirus.
The target in a further test is HLA-A*02:03. The test is described as above. The note with it: source organism: Zaire ebolavirus.
The next test deals with HLA-A*24:03. The description is as above. The note with it: source organism: Zaire ebolavirus.
Test [4] addresses HLA-A*03:01. The description is as above. The note with it: source organism: Zaire ebolavirus.
The next test deals with HLA-A*02:12. The test is described as above. The note with it: source organism: Zaire ebolavirus.
Another test has as its target HLA-B*40:01. Described as above. The note with it: source organism: Sudan ebolavirus - Maleo (1979).
The target of the next test is HLA-A*23:01. The test is described as above. The conditions noted are these: source organism: Zaire ebolavirus.
Test [5] has as its target HLA-A*02:19. The description is as above. The conditions noted are these: source organism: Zaire ebolavirus.
In another test the target is HLA-A*68:02. The test is described as above. The conditions noted are these: source organism: Zaire ebolavirus.
The target in a further test is HLA-A*02:11. The test is described as above. The conditions noted are these: source organism: Zaire ebolavirus.
In a further test the target is HLA-B*08:01. In words: IEDB peptide-MHC binding, purified MHC/competitive/fluorescence; ≥ and ≤ were set here for values at or beyond the usual limits of such assays.
Test [6] addresses HLA-A*02:01. The test is described as above. The note with it: source organism: Vaccinia virus Copenhagen.
In a further test the target is HLA-A*24:02. The test is described as above. The note with it: source organism: Zaire ebolavirus.
In a further test the target is HLA-B*53:01. Briefly: IEDB peptide-MHC binding, purified MHC/competitive/radioactivity; filed as Kd, often an IC50 or EC50 that approximates it; ≥ and ≤ were set here for values at or beyond the usual limits of such assays. The conditions noted are these: source organism: Vaccinia virus WR.
The target in test [7] is HLA-A*03:01. The description is as above. The conditions noted are these: source organism: Vaccinia virus WR.
In the next test the target is HLA-A*68:01. Described as above. The conditions noted are these: source organism: Vaccinia virus WR.
In another test the target is HLA-A*33:01. Described as above. The conditions noted are these: source organism: Vaccinia virus WR.
Another test deals with HLA-B*54:01. The description is as above. The conditions noted are these: source organism: Vaccinia virus WR.
The next test concerns the target HLA-B*35:01. Described as above. The note with it: source organism: Vaccinia virus WR.
Test [8] concerns the target HLA-B*51:01. The test is described as above. The conditions noted are these: source organism: Vaccinia virus WR.
A further test deals with HLA-A*11:01. The description is as above. The conditions noted are these: source organism: Vaccinia virus WR.
The next test addresses HLA-A*31:01. Described as above. The conditions noted are these: source organism: Vaccinia virus WR.
A further test concerns the target HLA-B*07:02. The test is described as above. The conditions noted are these: source organism: Vaccinia virus WR.
The target of another test is HLA-C*12:03. In words: IEDB peptide-MHC binding, purified MHC/direct/fluorescence; filed as Kd, often an IC50 or EC50 that approximates it; ≥ and ≤ were set here for values at or beyond the usual limits of such assays.
For test [9], the target named is HLA-A*02:19. In words: IEDB peptide-MHC binding, purified MHC/competitive/fluorescence; filed as Kd, often an IC50 or EC50 that approximates it; ≥ and ≤ were set here for values at or beyond the usual limits of such assays. The note with it: source organism: Toxoplasma gondii RH.
A further test deals with HLA-C*15:02. In words: IEDB peptide-MHC binding, purified MHC/direct/fluorescence; filed as Kd, often an IC50 or EC50 that approximates it; ≥ and ≤ were set here for values at or beyond the usual limits of such assays.
The target in a further test is HLA-B*58:01. The test is described as above. The conditions noted are these: source organism: Mycobacterium tuberculosis.
The target of the next test is HLA-B*18:01. In words: IEDB peptide-MHC binding, purified MHC/competitive/fluorescence; filed as Kd, often an IC50 or EC50 that approximates it; ≥ and ≤ were set here for values at or beyond the usual limits of such assays. The note with it: source organism: Zaire ebolavirus.
For test [10], the target named is HLA-B*15:01. In words: IEDB peptide-MHC binding, purified MHC/direct/fluorescence; filed as Kd, often an IC50 or EC50 that approximates it; ≥ and ≤ were set here for values at or beyond the usual limits of such assays. The conditions noted are these: source organism: Reston ebolavirus - Reston.
The mark [11] stands for this setting: source organism: Zaire ebolavirus.
Where [12] appears, read: source organism: Vaccinia virus Copenhagen.
Where [13] appears, read: source organism: Bacillus anthracis str. A2012.
[14] abbreviates: source organism: Bacillus anthracis str. A0488.
[15] abbreviates: source organism: Vaccinia virus L-IPV.

pIC50, pKd: −log10 of the molar value. Some results are limits rather than exact numbers.

As for ALPPRAFEL, the pKd (commonly −log10 of the Kd, conventionally taken in molar units) in the test with HLA-C*07:02 (source organism: Mycobacterium tuberculosis F11) is 7.07.
With DETFVHSGF, the negative logarithm of the Kd (pKd) with HLA-B*39:01 (setting [11]), with HLA-A*69:01, with HLA-B*15:17, in the test with HLA-A*02:01 [1] (setting [11]), in the test with HLA-B*51:01 [2] and with HLA-B*57:01 was not above 4.70 each time. The pKd with HLA-A*26:01, in the test with HLA-B*27:03, in the test with HLA-B*46:01, in the test with HLA-B*15:01 [3], with HLA-A*29:02 and with HLA-A*02:16 was not above 4.70 in each case. In addition, the pKd with HLA-A*02:03, with HLA-A*24:03, in the test with HLA-A*03:01 [4], with HLA-A*02:12, with HLA-B*40:01 and with HLA-A*23:01 was not above 4.70 throughout. The pKd in the test with HLA-A*02:19 [5], with HLA-A*68:02 and with HLA-A*02:11 was not above 4.70 throughout.
On to DSRPQKIWM, for which, in the test with HLA-B*08:01 (setting [11]), the pIC50 (as a rule, −log10 of the IC50, conventionally taken in molar units) was not above 4.02.
Regarding FALKKLIID, the negative logarithm of the IC50 (pIC50) in the test with HLA-A*02:01 [6] was not above 3.79; with HLA-B*08:01 (setting [12]), not above 3.68.
For FEEMYRHIL, the pIC50 was 4.59 in the test with HLA-A*24:02 and not above 4.09 with HLA-B*08:01 (setting [11]).
As to FLIYFRSPL, the pKd with HLA-A*02:01 [1] (setting [13]) was 7.97; in the test with HLA-C*07:02 (setting [13]) it was 5.84.
Turning to FRMTENVPL, the pKd was 8.77 with HLA-B*39:01 (setting [14]) and 7.32 in the test with HLA-C*07:02 (setting [14]).
Take NFHQKKNEI: the pIC50 with HLA-A*24:02 is 5.09; with HLA-B*08:01 (setting [11]), 4.18.
Regarding RLYDYFTRV, the pKd in the test with HLA-B*53:01 is not above 4.11; in the test with HLA-A*03:01 [7], not above 4.23; in the test with HLA-A*68:01, not above 4.11; with HLA-A*33:01 it was not above 4.11; with HLA-B*54:01, not above 4.22; in the test with HLA-B*35:01 it was not above 4.50. Further, the pKd was not above 4.11 with HLA-B*51:01 [8]; 6.81 with HLA-A*11:01; 6.39 with HLA-A*31:01; 4.77 with HLA-B*07:02; 8.41 in the test with HLA-A*02:01 [1] (setting [15]); 6.03 with HLA-C*12:03 (setting [15]).
For the sequence SIFERIREA, the figures for the pKd in the test with HLA-A*02:01 [1] (source organism: Toxoplasma gondii RH) and with HLA-A*02:19 [9] were 8.70 and 5.94, respectively.
In the case of TINDLKMML, in the test with HLA-C*15:02 (setting [12]), the pKd was 7.37.
In the case of VAANIVLTV, the pKd in the test with HLA-A*02:01 [1] (source organism: Homo sapiens) was 7.84; with HLA-C*12:03 (source organism: Callithrix jacchus), not below 9.00.
VSARIAALF: the figures for the pKd with HLA-B*58:01 and in the test with HLA-C*15:02 (source organism: Mycobacterium tuberculosis H37Rv) were 7.44 and 5.50, respectively.
With WQQWDRQSL, the pKd in the test with HLA-A*69:01, in the test with HLA-B*15:17, with HLA-B*18:01, in the test with HLA-A*02:01 [1] (setting [11]), with HLA-B*51:01 [2] and with HLA-B*57:01 was not above 4.70 each time. Besides, the pKd with HLA-A*26:01, with HLA-B*27:03, with HLA-B*46:01, with HLA-A*29:02, with HLA-A*02:16 and in the test with HLA-A*02:03 was not above 4.70 in each case. For the same sequence, the pKd with HLA-A*24:03, with HLA-A*03:01 [4], with HLA-A*02:12, in the test with HLA-A*23:01, with HLA-A*02:19 [5] and with HLA-A*68:02 was not above 4.70 in each case. Also, the pKd with HLA-B*15:01 [10] is 6.90; with HLA-A*02:11, not above 4.70.
As for YRSMIAFKL, in the test with HLA-C*07:02 (source organism: Entamoeba histolytica HM-1:IMSS), the pKd was 7.35.
